Results as given in patent US10487121B2, “D-peptide inhibitors of HIV entry and methods of use” (priority 2016, dated 2019).
Values after ≈ are worked out from the molar mass of the structure shown.

Assays:
[1] = Rat pharmacokinetics of cholesterol conjugates, Calvert study (Table 4 protocol)
Experimental: For PIE12 monomer conjugates, in-life studies were performed by Invitek (Hayward, Calif.). Trimeric conjugate in-life studies were performed at Navigen (Salt Lake City, Utah). […] At each timepoint, plasma was obtained using lithium heparin. […] Plasma samples were stored at −80° C. and shipped prior to bioanalysis.
The column temperature was maintained at 70° C.
Fifty microliter aliquots of plasma for each time point was precipitated with 2.5 volumes of ice-cold acetonitrile containing 2% trifluoroacetic acid (v/v) and 370 nM CPT12 as internal standard. […] The column temperature was maintained at 70° C.
CPT31 in Rat Plasma-Calvert Study
Fifty microliter aliquots of plasma for each time point was precipitated with 5 volumes of ice-cold acetonitrile containing 1% formic acid (v/v). No internal standard was used. […] The column temperature was maintained at 40° C.
All of the PK data presented in Table 3 was generated using the same animal protocols and similar bioanalytical methods. Different animal protocols and improved bioanalytical methods were used to generate the data in Table 4 (all PK fitiing was performed using WinNonlin software).

[2] = Rodent pharmacokinetics of PIE12-trimer and conjugates (Table 3 protocol); assay type: in vivo, Sprague Dawley rats; conditions: rats
Experimental: At each timepoint, plasma was obtained using lithium heparin.
Samples were spiked with an internal standard then precipitated with two volumes of 98% acetonitrile/2% Formic acid. Supernatants were analyzed by LC/MS/MS using an Agilent HPLC system (Waters X-Bridge BEH C18 column) paired to an AB Sciex API 3000 triple-quad mass spectrometer using MRM methods. Lipid conjugates required lower source temperatures (300° C. vs 500° C.) for improved reproducibility.

[3] = Solubility in standard aqueous buffers
[4] = rat, in vivo, IV, 1.0 mg/kg, plasma, median
[5] = rat, in vivo, SC, 1.0 mg/kg, plasma, median

`CC(=O)N[C@H](Cc1c[nH]cn1)C(=O)N1CCC[C@@H]1C(=O)N[C@@H]1CSSC[C@H](C(=O)N[C@H](CCC(=O)O)C(=O)N[C@H](CC(C)C)C(=O)NCC(=O)N[C@H](CCCCNC(=O)CCOCCOCCOCCOCCNC(=O)CCOCC(COCCC(=O)NCCOCCOCCOCCOCCC(=O)NCCCC[C@@H](NC(=O)CNC(=O)[C@@H](CC(C)C)NC(=O)[C@@H](CCC(=O)O)NC(=O)[C@H]2CSSC[C@@H](NC(=O)[C@H]3CCCN3C(=O)[C@@H](Cc3c[nH]cn3)NC(C)=O)C(=O)N[C@H](CC(=O)O)C(=O)N[C@H](Cc3ccc(O)cc3)C(=O)N3CCC[C@@H]3C(=O)N[C@H](CCC(=O)O)C(=O)N[C@H](Cc3c[nH]c4ccccc34)C(=O)N[C@H](CCC(N)=O)C(=O)N[C@H](Cc3c[nH]c4ccccc34)C(=O)N[C@H](CC(C)C)C(=O)N2)C(N)=O)(COCCC(=O)NCCOCCOCCOCCOCCC(=O)NCCCC[C@@H](NC(=O)CNC(=O)[C@@H](CC(C)C)NC(=O)[C@@H](CCC(=O)O)NC(=O)[C@H]2CSSC[C@@H](NC(=O)[C@H]3CCCN3C(=O)[C@@H](Cc3c[nH]cn3)NC(C)=O)C(=O)N[C@H](CC(=O)O)C(=O)N[C@H](Cc3ccc(O)cc3)C(=O)N3CCC[C@@H]3C(=O)N[C@H](CCC(=O)O)C(=O)N[C@H](Cc3c[nH]c4ccccc34)C(=O)N[C@H](CCC(N)=O)C(=O)N[C@H](Cc3c[nH]c4ccccc34)C(=O)N[C@H](CC(C)C)C(=O)N2)C(N)=O)NC(=O)CCOCCOCCOCCOCCOCCOCCOCCOCCOCCOCCOCCOCCOCCOCCOCCOCCOCCOCCOCCOCCOCCOCCOCCOCCNC(=O)CCN2C(=O)CC(S[C@H]3CC[C@@]4(C)C(=CC[C@H]5[C@@H]6CC[C@H]([C@H](C)CCCC(C)C)[C@@]6(C)CC[C@@H]54)C3)C2=O)C(N)=O)NC(=O)[C@@H](CC(C)C)NC(=O)[C@@H](Cc2c[nH]c3ccccc23)NC(=O)[C@@H](CCC(N)=O)NC(=O)[C@@H](Cc2c[nH]c3ccccc23)NC(=O)[C@@H](CCC(=O)O)NC(=O)[C@H]2CCCN2C(=O)[C@@H](Cc2ccc(O)cc2)NC(=O)[C@@H](CC(=O)O)NC1=O` (stereo partly drawn) [CPT24] showed a bioavailability ([1]; male, rat, in vivo, sc, 1 mg/kg) of 51.4%, an AUC(0-inf) ([1]; rat, in vivo, iv, 1 mg/kg) of 4.66 µM·h and a C0 ([1]; rat, in vivo, iv, 1 mg/kg) of 4530 nM. For the same molecule, the Vd ([1]; rat, in vivo, iv, 1 mg/kg) was 0.057 L/kg, the half-life ([1]; rat, in vivo, iv, 1 mg/kg) was 1.62 h and the half-life ([1]; rat, in vivo, sc) was 3.8 h. For the same molecule, the AUC(0-inf) ([1]; rat, in vivo, sc, 1 mg/kg) was 2.39 µM·h, the Cmax ([1]; rat, in vivo, sc, 1 mg/kg) was 395 nM and the Tmax ([1]; rat, in vivo, sc, 1 mg/kg) was 2 h. It also gave a half-life ([1]; rat, in vivo, sc, 1 mg/kg) of 3.88 h, an F ([1]; rats, SC, 1.0 mg/kg, plasma, median, updated protocols) of 51% and a bioavailability ([2]; Sprague Dawley, rat, SC, 1.0 mg/kg, plasma, median) of 73%. For the same molecule, the AUC(0-inf) [2, 4] was 2.39 µM·h, the C0 [2, 4] was 1110 nM and the clearance ([2]; rat, in vivo, IV, 1.0 mg/kg, plasma, median, read-out: Cl (obs) (converted)) was 0.783 mL/min/kg. It also gave a half-life ([2]; rat, in vivo, IV, 1.0 mg/kg, plasma, median, read-out: T1/2 (converted)) of 1.77 h, a Vd ([2]; rat, in vivo, IV, 1.0 mg/kg, plasma, median, read-out: Vz (obs)) of 0.13 L/kg and a half-life ([2]; rat, in vivo, IV, read-out: IV half-life (converted)) of 1.8 h. For the same molecule, the AUC(0-inf) [2, 5] was 1.75 µM·h, the Cmax [2, 5] was 304 nM and the Tmax [2, 5] was 4 h. For the same molecule, the half-life ([2]; rat, in vivo, SC, 1.0 mg/kg, plasma, median, read-out: T1/2 (converted)) was 2.71 h, the half-life ([2]; rat, in vivo, SC, read-out: SC half-life (converted)) was 2.7 h and the “increase of IV half-life vs PIE12-trimer” value ([2]; IV) was greater than 3 fold. For the same molecule, the “reduction of clearance vs PIE12-trimer” value ([2]; IV) was roughly 18 fold, the “extension of SC (apparent) half-life vs PIE12-trimer” value ([2]; SC, terminal phase elimination) was greater than 3 fold and the solubility [3] was roughly 40 mg/mL (≈ 4.53 mM).
